Literature values as cited in PMC9274133.
pKd: −log10 of the molar value. Each block holds one substance with its values, some of them ahead of it.

Legend:
IL-6R (Homo sapiens) = IL-6R (Homo sapiens) (UniProt P08887)
gp130 (Homo sapiens) = gp130 (Homo sapiens) (UniProt P40189)
IL-11R (Homo sapiens) = IL-11R (Homo sapiens) (UniProt Q14626)
Sequence of IL-11R (Homo sapiens) (Q14626 23-370): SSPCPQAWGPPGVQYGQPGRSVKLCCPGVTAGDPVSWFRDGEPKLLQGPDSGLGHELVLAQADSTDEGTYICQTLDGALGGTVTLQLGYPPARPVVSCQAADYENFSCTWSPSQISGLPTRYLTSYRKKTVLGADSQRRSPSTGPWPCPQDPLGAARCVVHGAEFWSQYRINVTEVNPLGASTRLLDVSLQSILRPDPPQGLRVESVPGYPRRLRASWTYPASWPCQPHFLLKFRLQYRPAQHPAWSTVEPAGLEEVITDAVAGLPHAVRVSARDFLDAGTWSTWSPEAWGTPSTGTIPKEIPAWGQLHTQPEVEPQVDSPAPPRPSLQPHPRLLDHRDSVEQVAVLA

Sequence of IL-11 (P20809 22-199): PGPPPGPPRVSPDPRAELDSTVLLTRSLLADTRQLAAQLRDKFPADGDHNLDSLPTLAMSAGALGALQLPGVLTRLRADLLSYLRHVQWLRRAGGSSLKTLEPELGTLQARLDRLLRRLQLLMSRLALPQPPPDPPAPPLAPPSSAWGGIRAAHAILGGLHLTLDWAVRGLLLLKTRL
Sequence of gp130 (Homo sapiens) (P40189 23-619): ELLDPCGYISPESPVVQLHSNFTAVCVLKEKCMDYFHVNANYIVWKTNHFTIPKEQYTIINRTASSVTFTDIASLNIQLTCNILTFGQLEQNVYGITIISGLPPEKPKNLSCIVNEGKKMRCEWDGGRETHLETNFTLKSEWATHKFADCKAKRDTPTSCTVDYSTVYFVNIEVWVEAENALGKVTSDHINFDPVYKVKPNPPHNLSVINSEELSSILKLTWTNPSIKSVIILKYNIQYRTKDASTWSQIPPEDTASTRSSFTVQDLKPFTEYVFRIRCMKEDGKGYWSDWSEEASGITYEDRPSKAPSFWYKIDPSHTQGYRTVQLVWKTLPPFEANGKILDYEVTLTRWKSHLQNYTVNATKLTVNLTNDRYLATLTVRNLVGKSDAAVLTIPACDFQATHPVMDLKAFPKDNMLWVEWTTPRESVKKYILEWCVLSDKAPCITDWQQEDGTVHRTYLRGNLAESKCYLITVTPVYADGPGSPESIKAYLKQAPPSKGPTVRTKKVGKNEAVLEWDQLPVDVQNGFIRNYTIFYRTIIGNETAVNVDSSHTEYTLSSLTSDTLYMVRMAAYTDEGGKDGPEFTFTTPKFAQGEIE
Sequence of IL-6R (Homo sapiens) (P08887 20-355): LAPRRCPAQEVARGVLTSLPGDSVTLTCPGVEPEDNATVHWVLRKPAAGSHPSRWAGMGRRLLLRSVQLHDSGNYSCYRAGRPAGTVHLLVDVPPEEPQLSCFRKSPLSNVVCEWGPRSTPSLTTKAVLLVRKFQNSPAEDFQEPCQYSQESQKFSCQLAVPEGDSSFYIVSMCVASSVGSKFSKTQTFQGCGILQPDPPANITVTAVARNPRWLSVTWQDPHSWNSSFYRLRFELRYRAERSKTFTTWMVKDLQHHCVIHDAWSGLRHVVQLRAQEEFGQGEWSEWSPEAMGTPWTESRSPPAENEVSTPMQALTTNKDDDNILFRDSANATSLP

- pKd (IL-6R (Homo sapiens)): 9.00
Substance: IL-6 (from UniProt P05231)

- pKd (gp130 (Homo sapiens)): 11.00
Substance: IL-6/IL-6R complex (from UniProt P05231)

- pKd (IL-11R (Homo sapiens)): 8.00
Substance: IL-11 (from UniProt P20809)
